Test results from US20250051465A1 (published 2025).

B1: H4H18445P2 (antibody, human IgG4, V domains shown)
VH: QVQLQESGPGLVKPSQTLSLTCTVSGGSISSGGDYWSWIRQLPGKGLEWIGYIYYSGSAYYNPSLKSRGTISIDTSKNQFSLKLTSVTAADTAVYFCVKLRFLEWFLGGWFGPWGQGTLVTVSS
VL: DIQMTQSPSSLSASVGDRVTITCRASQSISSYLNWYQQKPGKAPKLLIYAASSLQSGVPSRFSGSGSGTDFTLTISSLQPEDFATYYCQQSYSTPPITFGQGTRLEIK
notes: Fully human antibody with human IgG4 Fc (H4H prefix)
B2: H4H16650P2 (antibody, human IgG4, V domains shown)
VH: QVQLVESGGGVVQPGKSLRLSCVASGFTFSSDAMYWVRQAPGKGLEWVAVIYYDGNYQYYEDSVKGRFTISRDNSQNTLDLQMNSLRVDDTAVYFCARLNWDYWYLDLWGRGTLVTVSS
VL: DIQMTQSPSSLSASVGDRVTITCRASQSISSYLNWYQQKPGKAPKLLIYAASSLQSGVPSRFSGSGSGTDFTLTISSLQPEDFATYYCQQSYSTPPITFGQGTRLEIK
notes: as for B1
B3: H4H18446P2 (antibody, human IgG4, V domains shown)
VH: EVQLVESGGGLVQPGGSLRLSCAASGFTFSNYGMTWVRQAPGKGLEWVSAITGGGGSTYYSNSVKGRFTISRDNSKNTVYLRMNSVRAEDTAVYYCAKYKWNFVDDWGQGTTVTVSS
VL: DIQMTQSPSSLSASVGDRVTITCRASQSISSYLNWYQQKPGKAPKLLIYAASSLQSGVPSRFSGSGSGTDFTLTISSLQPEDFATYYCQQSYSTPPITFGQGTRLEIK
notes: as for B1
B4: H4H18449P2 (antibody, human IgG4, V domains shown)
VH: EVQLVESGGGLVQPGGSLRLSCVASGFTFNKYDMHWVRQTTGKGLEWVSGIDTDGDTYYPGSVKGRFTISRENAENSLYLQMNGLRVGDTAVYYCARWPWSGFYGAFDIWGQGTMVTVSS
VL: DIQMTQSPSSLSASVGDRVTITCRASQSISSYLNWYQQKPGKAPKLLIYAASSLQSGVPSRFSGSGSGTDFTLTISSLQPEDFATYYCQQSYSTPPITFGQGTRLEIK
notes: as for B1
B5: H4H18438P2 (antibody, human IgG4, V domains shown)
VH: QVQLVESGGGVVQPGRSLRLSCAASGFSFNTYGMHWVRQAPGKGLEWVTIIWYDGSIKYYADSVKGRFTISRDNSKNTLYLQMNSLRAEDTAVYYCARGGYSGYLYFDYWGQGTLVTVSS
VL: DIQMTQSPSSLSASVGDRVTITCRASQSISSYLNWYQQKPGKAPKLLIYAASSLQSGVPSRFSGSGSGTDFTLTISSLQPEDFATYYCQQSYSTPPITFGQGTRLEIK
notes: as for B1
B6: H4H18417P2 (antibody, human IgG4, V domains shown)
VH: QVQLVESGGGVVQPGRSLRLSCAASGFTFSTYGMHWVRQAPGKGLEWVSVISYDESNKYYADSVKGRFTISRDNSKNALYLQMNSLRNEDTAVYYCARDRPFGLVTGWFDPWGQGTLVTVSS
VL: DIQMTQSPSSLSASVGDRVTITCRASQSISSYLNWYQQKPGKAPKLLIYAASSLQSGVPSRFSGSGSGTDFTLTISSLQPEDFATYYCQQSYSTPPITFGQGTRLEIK
notes: as for B1

target: T1, human LEPR extracellular domain expressed with a C-terminal myc-myc-hexahistidine tag (hLEPR.mmh) (human, UniProt P48357 22-839); assay: SPR, captured mAb, 25C
T1 construct: also called human LEPR-MMH; monomeric human LEPR
Method: (§1) Equilibrium dissociation constants (KD values) for LEPR binding to purified anti-LEPR monoclonal antibodies were determined using a real-time surface plasmon resonance biosensor using a Biacore 4000 instrument. All binding studies were performed in 10 mM HEPES, 150 mM NaCl, 3 mM EDTA, and 0.05% v/v Surfactant Tween-20, pH 7.4 (HBS-ET) running buffer at 25° C. and 37° C. The Biacore sensor surface was first derivatized by amine coupling with a monoclonal mouse anti-human Fc antibody (GE, #BR-1008-39) to capture anti-LEPR monoclonal antibodies. […] Kinetic association (kₐ) and dissociation (kd) rate constants were determined by fitting the real-time binding sensorgrams to a 1:1 binding model with mass transport limitation using Scrubber 2.0c curve-fitting software. Binding dissociation equilibrium constants (KD) and dissociative half-lives (t½) were calculated from the kinetic rate constants as: […]

| 100 nM hLEPR-MMH Bound (RU) | Kd | koff | kon | t½ | Binder |
| --- | --- | --- | --- | --- | --- |
| 45 RU | 0.108 µM | 0.00478 s⁻¹ | 44200 M⁻¹ s⁻¹ | 2.4 min | B1 |
| 51 RU | 0.00793 µM | 0.000223 s⁻¹ | 28100 M⁻¹ s⁻¹ | 52 min | B2 |
| 16 RU | 0.0525 µM | 0.000951 s⁻¹ | 18100 M⁻¹ s⁻¹ | 12 min | B3 |
| 54 RU | 0.00808 µM | 0.000235 s⁻¹ | 29100 M⁻¹ s⁻¹ | 49 min | B4 |
| 22 RU | 0.0754 µM | 0.00226 s⁻¹ | 30000 M⁻¹ s⁻¹ | 5.1 min | B5 |
| 28 RU | 0.129 µM | 0.0079 s⁻¹ | 61400 M⁻¹ s⁻¹ | 1.5 min | B6 |

Target: T2, human LEPR extracellular domain expressed with a C-terminal mouse IgG2a Fc tag (hLEPR.mFc) (human)
T2 construct: also called dimeric human LEPR
T2 chain: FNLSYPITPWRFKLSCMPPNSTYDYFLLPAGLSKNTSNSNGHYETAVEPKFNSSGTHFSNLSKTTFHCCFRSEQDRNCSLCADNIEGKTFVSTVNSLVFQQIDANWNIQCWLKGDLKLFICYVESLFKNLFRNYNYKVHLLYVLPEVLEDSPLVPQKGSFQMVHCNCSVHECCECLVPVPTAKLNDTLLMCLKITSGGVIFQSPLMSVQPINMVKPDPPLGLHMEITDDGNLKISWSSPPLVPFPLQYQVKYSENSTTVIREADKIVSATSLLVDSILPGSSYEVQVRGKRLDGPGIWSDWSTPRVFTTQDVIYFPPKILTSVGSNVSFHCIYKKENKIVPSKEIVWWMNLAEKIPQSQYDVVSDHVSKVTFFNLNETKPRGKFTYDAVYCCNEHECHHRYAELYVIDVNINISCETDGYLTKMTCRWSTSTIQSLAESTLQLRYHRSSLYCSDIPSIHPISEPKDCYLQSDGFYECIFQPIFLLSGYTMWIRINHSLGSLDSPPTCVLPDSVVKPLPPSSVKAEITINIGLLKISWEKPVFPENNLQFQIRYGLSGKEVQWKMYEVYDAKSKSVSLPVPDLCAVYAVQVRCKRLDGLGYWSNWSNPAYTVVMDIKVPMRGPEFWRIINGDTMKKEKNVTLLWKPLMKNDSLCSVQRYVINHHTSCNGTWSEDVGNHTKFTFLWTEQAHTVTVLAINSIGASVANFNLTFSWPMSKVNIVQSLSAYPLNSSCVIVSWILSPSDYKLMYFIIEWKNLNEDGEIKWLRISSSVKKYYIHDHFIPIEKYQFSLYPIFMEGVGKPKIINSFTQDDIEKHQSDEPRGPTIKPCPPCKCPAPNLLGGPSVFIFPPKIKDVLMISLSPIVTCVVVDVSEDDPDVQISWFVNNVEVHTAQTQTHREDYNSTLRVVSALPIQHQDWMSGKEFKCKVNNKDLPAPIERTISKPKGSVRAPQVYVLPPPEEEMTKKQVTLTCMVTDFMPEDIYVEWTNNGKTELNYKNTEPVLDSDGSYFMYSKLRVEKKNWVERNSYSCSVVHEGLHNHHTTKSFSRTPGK
Assay: SPR, captured mAb, 25C
Method: as §1

| 100 nM hLEPR-mFc Bound (RU) | Kd | koff | kon | t½ | Binder |
| --- | --- | --- | --- | --- | --- |
| 76 RU | 0.00403 µM | 0.000492 s⁻¹ | 122000 M⁻¹ s⁻¹ | 23 min | B1 |
| 102 RU | 0.000785 µM | 8.32e-05 s⁻¹ | 106000 M⁻¹ s⁻¹ | 139 min | B2 |
| 20 RU | 0.00648 µM | 0.000208 s⁻¹ | 32000 M⁻¹ s⁻¹ | 56 min | B3 |
| 116 RU | 0.000964 µM | 6.82e-05 s⁻¹ | 70500 M⁻¹ s⁻¹ | 169 min | B4 |
| 51 RU | 0.0047 µM | 0.000244 s⁻¹ | 51900 M⁻¹ s⁻¹ | 47 min | B5 |
| 90 RU | 0.00404 µM | 0.000563 s⁻¹ | 140000 M⁻¹ s⁻¹ | 21 min | B6 |

target: T1, human LEPR extracellular domain …; assay: SPR, captured mAb, 37C
Method: as §1

| 100 nM hLEPR-MMH Bound (RU) | Kd | koff | kon | t½ | Binder |
| --- | --- | --- | --- | --- | --- |
| 38 RU | 0.326 µM | 0.0168 s⁻¹ | 51300 M⁻¹ s⁻¹ | 0.7 min | B1 |
| 77 RU | 0.0198 µM | 0.000958 s⁻¹ | 48500 M⁻¹ s⁻¹ | 12 min | B2 |
| 21 RU | 0.121 µM | 0.00256 s⁻¹ | 21200 M⁻¹ s⁻¹ | 4.5 min | B3 |
| 73 RU | 0.0207 µM | 0.000815 s⁻¹ | 39400 M⁻¹ s⁻¹ | 14 min | B4 |
| 32 RU | 0.17 µM | 0.00576 s⁻¹ | 33800 M⁻¹ s⁻¹ | 2 min | B5 |
| 22 RU | 0.233 µM | 0.018 s⁻¹ | 77000 M⁻¹ s⁻¹ | 0.6 min | B6 |

target: T3, Macaca fascicularis LEPR extracellular domain expressed with a C-terminal myc-myc-hexahistidine tag … (Macaca fascicularis, UniProt Q9MYL0 22-837 (rhesus entry)); assay: SPR, captured mAb, 37C
T3 construct: also called mfLEP.MMH
Method: as §1

| 100 nM mfLEPR.MMH Bound (RU) | Kd | koff | kon | t½ | Binder |
| --- | --- | --- | --- | --- | --- |
| 48 RU | 0.264 µM | 0.019 s⁻¹ | 71700 M⁻¹ s⁻¹ | 0.6 min | B1 |
| 134 RU | 0.00576 µM | 0.0007 s⁻¹ | 122000 M⁻¹ s⁻¹ | 16 min | B2 |
| 30 RU | 0.14 µM | 0.00354 s⁻¹ | 25300 M⁻¹ s⁻¹ | 3.3 min | B3 |
| 28 RU | 0.217 µM | 0.0263 s⁻¹ | 122000 M⁻¹ s⁻¹ | 0.4 min | B6 |

Target: T2, human LEPR extracellular domain …
Assay: SPR, captured mAb, 37C
Method: as §1

| 100 nM hLEPR-mFc Bound (RU) | Kd | koff | kon | t½ | Binder |
| --- | --- | --- | --- | --- | --- |
| 104 RU | 0.00389 µM | 0.000608 s⁻¹ | 156000 M⁻¹ s⁻¹ | 19 min | B1 |
| 145 RU | 0.00179 µM | 0.00028 s⁻¹ | 157000 M⁻¹ s⁻¹ | 41 min | B2 |
| 34 RU | 0.0128 µM | 0.000548 s⁻¹ | 42700 M⁻¹ s⁻¹ | 21 min | B3 |
| 148 RU | 0.00126 µM | 0.000168 s⁻¹ | 133000 M⁻¹ s⁻¹ | 69 min | B4 |
| 82 RU | 0.00853 µM | 0.000598 s⁻¹ | 70200 M⁻¹ s⁻¹ | 19 min | B5 |
| 111 RU | 0.00564 µM | 0.00105 s⁻¹ | 185000 M⁻¹ s⁻¹ | 11 min | B6 |

target: T4, human LEPR CRH1 (D1,D2,D3)-MMH (human, UniProt P48357 22-427, limits assumed); assay: Luminex, myc-captured LEPR domain
T4 construct: domain: CRH1-Ig (D1,D2,D3); Transiently expressed, captured from supernatant on anti-myc beads; also called CRH1-Ig (D1, D2, D3)
Method: (§2) Aliquots of microspheres with immobilized anti-myc monoclonal antibodies, prepared as described above, were added individually to 1 mL of the each of these protein supernatants. The microspheres were gently mixed, incubated for two hours at 25° C., washed twice with 1 mL of DBPS, centrifuged to remove the supernatant and finally resuspended in 1 mL of DPBS buffer. Forty-eight μL of anti-myc IgG coupled microspheres from individual reactions with full length human LEPR and with each of the human LEPR domain proteins were withdrawn and mixed together in 3.6 mL of PBS+20 mg/mL BSA+0.05% sodium azide (blocking buffer).
(§3) From this mixed pool, 75 μL of microspheres were plated per well on a 96 well filter plate (Millipore, Cat. No: MSBVN1250) and mixed with 25 μL of individual anti-human LEPR monoclonal antibodies (0.5 or 5 µg/mL), incubated for two hours at 25° C. and then washed twice with 200 μL of DPBS with 0.05% Tween 20 (washing buffer). […] After 30 minutes, the samples were washed twice with 200 μL of washing buffer and resuspended in 150 μL of wash buffer. The Median Fluorescence intensity (MFI) of the microspheres was measured in a Luminex Analyzer.

| MFI | Binder |
| --- | --- |
| 22 MFI | B1 |
| 2560 MFI | B2 |
| 2060 MFI | B4 |
| 6570 MFI | B5 |
| 3330 MFI | B6 |

target: T5, human LEPR Ig (D3)-MMH (human, UniProt P48357 340-427, limits assumed); assay: Luminex, myc-captured LEPR domain
T5 construct: domain: Ig (D3); Transiently expressed, captured from supernatant on anti-myc beads
Method: as §2, §3

T5 sequence (P48357 other isoform, or with tags, fused parts or gaps limits assumed): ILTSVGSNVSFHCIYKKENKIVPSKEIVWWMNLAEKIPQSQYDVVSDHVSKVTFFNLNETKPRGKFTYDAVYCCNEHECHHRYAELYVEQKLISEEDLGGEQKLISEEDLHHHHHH

| MFI | Binder |
| --- | --- |
| 19 MFI | B1 |
| 10 MFI | B2 |
| 25 MFI | B3 |
| 24 MFI | B4 |
| 30 MFI | B5 |
| 17 MFI | B6 |

target: T6, human LEPR Ig-CRH2-FNIII-MMH (human, UniProt P48357 330-839, limits assumed); assay: Luminex, myc-captured LEPR domain
T6 construct: domain: Ig-CRH2-FNIII; Transiently expressed, captured from supernatant on anti-myc beads
Method: as §2, §3

T6 sequence (P48357 other isoform, or with tags, fused parts or gaps limits assumed): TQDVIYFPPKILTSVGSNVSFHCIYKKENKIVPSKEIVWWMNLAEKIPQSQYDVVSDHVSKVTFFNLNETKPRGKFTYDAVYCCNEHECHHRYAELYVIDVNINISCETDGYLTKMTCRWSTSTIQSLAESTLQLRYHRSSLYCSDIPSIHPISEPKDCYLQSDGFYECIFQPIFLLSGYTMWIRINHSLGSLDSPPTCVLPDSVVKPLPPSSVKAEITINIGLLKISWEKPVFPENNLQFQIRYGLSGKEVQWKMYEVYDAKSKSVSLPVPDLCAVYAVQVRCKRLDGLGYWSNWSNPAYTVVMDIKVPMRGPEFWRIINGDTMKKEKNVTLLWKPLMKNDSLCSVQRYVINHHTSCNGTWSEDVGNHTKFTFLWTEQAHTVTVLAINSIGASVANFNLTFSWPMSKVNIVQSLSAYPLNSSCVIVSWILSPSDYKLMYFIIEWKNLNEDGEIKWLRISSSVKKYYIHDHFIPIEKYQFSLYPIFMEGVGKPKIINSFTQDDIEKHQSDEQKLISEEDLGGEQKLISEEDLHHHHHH

| MFI | Binder |
| --- | --- |
| 14500 MFI | B1 |
| 110 MFI | B2 |
| 16900 MFI | B3 |
| 43 MFI | B4 |
| 468 MFI | B5 |
| 37 MFI | B6 |
